Source: article PMC6077130 (Heliyon, 2018)

Target: T1, N-terminus of Glis3 (aa 1-653) fused to the Gal4 DBD (mouse, UniProt F6SGN4 1-653)
T1 sequence (looked up): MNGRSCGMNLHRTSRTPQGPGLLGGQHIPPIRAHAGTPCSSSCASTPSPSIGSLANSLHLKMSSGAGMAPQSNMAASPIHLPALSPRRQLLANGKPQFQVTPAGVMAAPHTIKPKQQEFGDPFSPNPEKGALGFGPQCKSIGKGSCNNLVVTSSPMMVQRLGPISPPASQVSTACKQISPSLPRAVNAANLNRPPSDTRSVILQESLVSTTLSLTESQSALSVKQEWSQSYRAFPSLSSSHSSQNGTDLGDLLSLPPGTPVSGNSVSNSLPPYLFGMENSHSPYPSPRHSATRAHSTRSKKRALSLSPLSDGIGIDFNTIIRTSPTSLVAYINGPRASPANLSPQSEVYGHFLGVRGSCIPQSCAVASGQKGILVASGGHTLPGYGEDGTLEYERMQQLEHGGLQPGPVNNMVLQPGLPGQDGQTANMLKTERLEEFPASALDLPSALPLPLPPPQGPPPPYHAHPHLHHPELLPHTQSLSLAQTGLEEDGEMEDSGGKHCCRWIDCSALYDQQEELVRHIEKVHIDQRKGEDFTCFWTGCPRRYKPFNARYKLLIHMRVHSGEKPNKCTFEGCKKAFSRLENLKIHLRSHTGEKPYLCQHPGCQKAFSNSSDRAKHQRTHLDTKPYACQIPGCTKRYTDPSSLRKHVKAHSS
Experiment: two-hybrid

B1: full length PIASy fused to the Gal4 AD (VP16-PIASy) (natural protein, UniProt Q9JM05 1-507, looked up)
chain: MAAELVEAKNMVMSFRVSDLQMLLGFVGRSKSGLKHELVTRALQLVQFDCSPELFKKIKELYETRYAKKSAEPGPQAPRPLDPLALHSMPRTPLSGPTVDYPVLYGKYLNGLGRLPTKTLKPEVRLVKLPFFNMLDELLKPTELVPQSAEKLQESPCIFALTPRQVEMIRNSRELQPGVKAVQVVLRICYSDTSCPQEDQYPPNIAVKVNHSYCSVPGYYPSNKPGVEPKRPCRPINLTHLMYLSSATNRITVTWGNYGKSYSVALYLVRQLTSSDLLQRLKTIGVKHPELCKALVKEKLRLDPDSEIATTGVRVSLICPLVKMRLSVPCRAETCAHLQCFDAVFYLQMNEKKPTWMCPVCDKPAAYDQLIIDGLLSKILSECEGADEIEFLAEGSWRPIRAEKEPSCSPQGPILVLGTSDANGLAPASSTPGIGSGLSGPGSAGSGAGAAGSLENGKTGADVVDLTLDSSSSSEDEDEDEDDDEDEDEGPRPKRRCPFQKGLVPAC
With B1 the “fold increase in luciferase expression (two-hybrid, chimeras co-expressed)” value was 1.5 fold.
